The results in this text go back to US20230192878A1 (published 2023).

The target in this assay is T1, B-cell maturation antigen (BCMA) (human, UniProt Q02223 1-184).
T1 sequence (looked up): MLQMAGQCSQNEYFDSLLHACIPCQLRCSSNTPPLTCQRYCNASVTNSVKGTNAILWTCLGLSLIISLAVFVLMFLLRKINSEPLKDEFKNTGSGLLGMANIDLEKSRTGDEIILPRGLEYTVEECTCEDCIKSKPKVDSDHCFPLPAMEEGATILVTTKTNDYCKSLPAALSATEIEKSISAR
As to the kind of experiment: cell-based or functional assay.

B1: PF-06863135 (bispecific antibody, human IgG2)
heavy 1: EVQLVESGGGLVQPGGSLRLSCAASGFTFSDYYMTWVRQAPGKGLEWVAFIRNRARGYTSDHNPSVKGRFTISRDNAKNSLYLQMNSLRAEDTAVYYCARDRPSYYVLDYWGQGTTVTVSSASTKGPSVFPLAPCSRSTSESTAALGCLVKDYFPEPVTVSWNSGALTSGVHTFPAVLQSSGLYSLSSVVTVPSSNFGTQTYTCNVDHKPSNTKVDKTVERKCRVRCPRCPAPPVAGPSVFLFPPKPKDTLMISRTPEVTCVVVAVSHEDPEVQFNWYVDGVEVHNAKTKPREEQFNSTFRVVSVLTVVHQDWLNGKEYKCKVSNKGLPSSIEKTISKTKGQPREPQVYTLPPSREEMTKNQVSLTCLVKGFYPSDIAVEWESNGQPENNYKTTPPMLDSDGSFFLYSRLTVDKSRWQQGNVFSCSVMHEALHNHYTQKSLSLSPGK
light 1: not shown
heavy 2: EVQLLESGGGLVQPGGSLRLSCAASGFTFSSYPMSWVRQAPGKGLEWVSAIGGSGGSLPYADIVKGRFTISRDNSKNTLYLQMNSLRAEDTAVYYCARYWPMDIWGQGTLVTVSSASTKGPSVFPLAPCSRSTSESTAALGCLVKDYFPEPVTVSWNSGALTSGVHTFPAVLQSSGLYSLSSVVTVPSSNFGTQTYTCNVDHKPSNTKVDKTVERKCEVECPECPAPPVAGPSVFLFPPKPKDTLMISRTPEVTCVVVAVSHEDPEVQFNWYVDGVEVHNAKTKPREEQFNSTFRVVSVLTVVHQDWLNGKEYKCKVSNKGLPSSIEKTISKTKGQPREPQVYTLPPSREEMTKNQVSLTCEVKGFYPSDIAVEWESNGQPENNYKTTPPMLDSDGSFFLYSKLTVDKSRWQQGNVFSCSVMHEALHNHYTQKSLSLSPGK
light 2: EIVLTQSPGTLSLSPGERATLSCRASQSVSSSYLAWYQQKPGQAPRLLMYDASIRATGIPDRFSGSGSGTDFTLTISRLEPEDFAVYYCQQYQSWPLTFGQGTKVEIKRTVAAPSVFIFPPSDEQLKSGTASVVCLLNNFYPREAKVQWKVDNALQSGNSQESVTEQDSKDSTYSLSSTLTLSKADYEKHKVYACEVTHQGLSSPVTKSFNRGEC
As to B1, the “EC50 (nM) of cell viability, H929-Luc co-cultured with human CD3+ T cells, 72 hr, with GSI (nirogacestat)” value was found to be 0.0055 nM; the “EC50 (nM) of cell viability, H929-Luc co-cultured with human CD3+ T cells, 72 hr, without GSI” value came to 0.167 nM; the “EC50 (nM) of cell viability, Molp8-Luc co-cultured with human CD3+ T cells, 72 hr, with GSI (nirogacestat)” value came out at 0.0202 nM; the “EC50 (nM) of cell viability, Molp8-Luc co-cultured with human CD3+ T cells, 72 hr, without GSI” value was 0.108 nM. In addition, the “EC50 (nM) of cell viability, OPM2-Luc co-cultured with human CD3+ T cells, 72 hr, with GSI (nirogacestat)” value came to 0.0033 nM; the “EC50 (nM) of cell viability, OPM2-Luc co-cultured with human CD3+ T cells, 72 hr, without GSI” value stood at 0.0528 nM; the “EC50 (nM) of cell viability, RPMI8226-Luc co-cultured with human CD3+ T cells, 72 hr, with GSI (nirogacestat)” value stood at 0.0017 nM; the “EC50 (nM) of cell viability, RPMI8226-Luc co-cultured with human CD3+ T cells, 72 hr, without GSI” value stood at 0.0092 nM.
